Experimental data: patent US20230357323A1, “HUMAN IL23 RECEPTOR BINDING POLYPEPTIDES” (University of Washington, priority 2020, published 2023)
Where two headings read alike, the source gives them in different places.

Assays:
[1] = Circular dichroism temperature and chemical denaturant (GuHCl) melts; assay type: physicochemical
Experimental: FIG. 3. Stability analysis of B08, a representative affinity-matured combinatorial variant and BO4dslf02, a representative disulfide-stabilized variant. (A) Designed proteins were incubated in simulated gastric or intestinal fluids and degradation was assessed by SDS PAGE at 5, 15, 30 and 60 minutes, 4 and 24 hours. (B) Resistance to temperature and chemical denaturant (GuHCl) was assessed by circular dichroism, measuring the helical signature (signal at 222 nm) in the conditions shown normalized to baseline (25° C. and 0 M GuHCl).
CD spectra were recorded with a J-1500 Circular Dichroism Spectrometer (JASCO). Proteins were assayed at […] in DPBS free of MgCl2 and […]. (Life Technologies) with guanidinium hydrochloride from 0 to 6 M, and data were collected at 25° C. For temperature melts, proteins at […] were heated from 25° C. to 95° C. over approximately 1.5 hours.

human IL-23R (hIL-23R) = biological target: T1, human IL-23R (hIL-23R) (Homo sapiens, UniProt Q5VWK5); assay: Biolayer interferometry (BLI) binding to hIL-23R; details: biolayer interferometry binding titrations; read-out: affinity (KD) for hIL-23R
T1 construct: his tag (C); purchased
T1 sequence (Q5VWK5 24-629): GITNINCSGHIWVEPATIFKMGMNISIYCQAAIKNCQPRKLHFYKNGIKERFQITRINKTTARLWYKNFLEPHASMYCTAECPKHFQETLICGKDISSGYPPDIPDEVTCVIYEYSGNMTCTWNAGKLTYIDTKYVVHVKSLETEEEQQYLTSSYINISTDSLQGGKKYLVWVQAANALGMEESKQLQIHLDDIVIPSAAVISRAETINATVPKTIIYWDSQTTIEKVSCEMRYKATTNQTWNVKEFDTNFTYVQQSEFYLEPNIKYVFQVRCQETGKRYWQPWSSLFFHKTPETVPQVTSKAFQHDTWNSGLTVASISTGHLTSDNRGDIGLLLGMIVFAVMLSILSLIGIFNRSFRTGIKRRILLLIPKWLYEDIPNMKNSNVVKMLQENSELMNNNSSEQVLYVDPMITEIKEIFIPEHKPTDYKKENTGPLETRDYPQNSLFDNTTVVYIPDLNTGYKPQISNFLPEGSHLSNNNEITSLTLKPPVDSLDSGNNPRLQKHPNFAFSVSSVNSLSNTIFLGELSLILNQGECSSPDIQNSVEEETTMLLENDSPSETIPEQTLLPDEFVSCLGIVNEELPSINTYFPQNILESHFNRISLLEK
Description: Two designs, 23R_A (SEQ ID NO:10) and 23R_B (SEQ ID NO:110), were highly enriched in the final selection pool and were chosen for further biochemical characterization. Both designs are 3-helix bundles (54 and 53 residues, respectively) which incorporate the native Trp hotspot at the N-terminal end of a helix such that IL-23R residue D118 forms a helix-capping hydrogen bond with the Trp hotspot's free backbone amine, similar to the αD helix of p19 (FIG. 1D). In both designs, this central binding helix has a larger interaction surface with hIL-23R, mediated by additional de novo hotspots, than p19. […]
Variants were first screened for relative binding to hIL-23R with biolayer interferometry (BLI). hIL-23R was immobilized on the BLI sensor tips and binding to each variant in solution at a constant concentration (50 nM) was measured to qualitatively determine relative performance of the variants. For the best-performing variants, binding constants (KD, including kon, and koff) were quantitatively determined with BLI titration experiments in triplicate. […]
Qualitative and quantitative assessment of binding affinity was performed using biolayer interferometry (ForteBio Octet™ […] and associated software for analysis). […] Kinetic constants were determined from the mathematical fit of a 1:1 binding model.

B1: … (protein)
chain 1: MESEKYLRELVKKYYEGKLSVQEAVEEVRKYARKKGLEAWMLTWMFMELVKRYI
chain 2: MESEKYLRELVKKYYEGKLSVQEAVEEVRKYARKKGLEAWMLTWMFMELVKRYI
notes: computational design, 3-helix bundle, 54 residues
stability by circular dichroism (CD) ([1]; high temperature and high concentrations of chemical denaturant): high stability
Kd (human IL-23R (hIL-23R)): 26 ± 1 nM

B2: NLWQIFYQLSTILKRTGDPTAKKLLKALAEALKKGDEKALKELAKKATKYIRS (protein)
chain 1: NLWQIFYQLSTILKRTGDPTAKKLLKALAEALKKGDEKALKELAKKATKYIRS
chain 2: NLWQIFYQLSTILKRTGDPTAKKLLKALAEALKKGDEKALKELAKKATKYIRS
notes: computational design, 3-helix bundle, 53 residues
stability by circular dichroism (CD) [1]: high stability
Kd (human IL-23R (hIL-23R)): 70 ± 50 nM
